From patent US20130303449A1 (University of California, published 2013)
Positions of bridges follow the written chain, without caps; N, C: chain ends. No end group written: not given here.

How the values were obtained:
recombinant human BMP-2 [1] = target: T1, recombinant human BMP-2 (human, UniProt P12643 283-396); test: cell-based or functional assay
recombinant human BMP-2 [2] = target: T1, recombinant human BMP-2; test: SPR (Biacore X), rhBMP-2 on CM-5 chip, peptide at 1×10^-5 to 1×10^-4 M in solution
Experimental: Buffers and chips for the procedure were obtained from Biacore. […] This material was then attached to a CM-5 sensor chip using reagents and procedures supplied by the manufacturer. Running buffer was 10 mM HEPES, pH 7.4, 150 mM NaCl, 3 mM EDTA, 0.005% Surfactant P20. The peptide was dissolved in running buffer at concentrations ranging from 1×10⁻⁵ to 1×10⁻⁴ M. Flow rates from 5 to 50 μl/min and injection volumes of 20 to 100 μl were employed. The regeneration solution was […] glycine-HCl, pH 2.0.

T1 sequence (P12643 283-396 limits assumed): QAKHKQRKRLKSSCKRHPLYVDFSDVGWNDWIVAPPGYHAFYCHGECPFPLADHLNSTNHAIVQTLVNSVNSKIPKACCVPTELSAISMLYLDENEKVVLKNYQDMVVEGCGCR

- retention of labeled rhBMP-2 on collagen sponges implanted in rodent muscle pouches (1, 3 and 7 days) (recombinant human BMP-2 [1]): ~2 fold
- Kd (recombinant human BMP-2 [2]): 30 µM
B1: cyclized BMP Binding Peptide (BBP), bovine (peptide)
peptide: CRSTVRMSAEQVQNVWVRC
modifications: disulfide 1-19 (inferred)
notes: Synthetic 19 amino acid cyclic peptide, 2.1 kD; Reduction with β-mercaptoethanol decyclizes it, which implies a disulfide; also called cyclized BBP
